Results reported in doi:10.1101/456046.

Biological target: Photosystem II subunit S (PsbS) from Physcomitrella patens (Physcomitrella patens)
Test: SDS-PAGE

stoichiometry N: 2
Substance: Photosystem II subunit S (PsbS) from Physcomitrella patens (natural protein)
